As usually defined, the stoichiometry N is a count of units in the complex or per binding partner.

The target in assay [1] is Plasmodium falciparum heat shock factor binding protein (PfHSBP), endogenous (P. falciparum (endogenous in 3D7 parasites)) (UniProt Q8IIF8). Nature of the assay: SEC; P. falciparum lysate on Superdex 200 10/300 GL in PBS; fractions immunoblotted for PfHSBP. Background: Size exclusion chromatography separates by hydrodynamic size, large species first.
Assay [2] shares this target. Nature of the assay: SDS-PAGE and immunoblot (SDS-resistant oligomers); P. falciparum lysate resolved on SDS-PAGE and probed with anti-PfHSBP antiserum; pre-immune serum as control. In general terms: A western blot detects proteins with antibodies after separation by electrophoresis.
The target is the same in assay [3]. The assay can be described thus: immunoprecipitation, SDS-PAGE and phosphorimaging; lysate of [35S]-labelled P. falciparum (1% Triton X-100); anti-PfHSBP antiserum 1:25 at 4°C for 12 hours, Protein G beads; Protein G and pre-immune serum controls.

Several values for one entry are separate records, joined by “and”; a condition that tells them apart may be missing. Equal entries are not always repeated.

Consider “Plasmodium falciparum heat shock factor binding protein (PfHSBP), endogenous (from UniProt Q8IIF8 1-113) (natural protein)”, for which the stoichiometry N is 6 in assay [1]; 3 and 6 in assay [2]; 6 in assay [3].

Values taken from article PMC3994269.
